According to patent US20170101466A1 (published 2017):

Key:
[1] = target: T1, soluble mouse BLyS (mouse, UniProt Q9WU72 127-309); assay: Biacore T100, binder captured by anti-human Fc, BLyS injected, 1:1 model
T1 construct: europium-labelled in DELFIA; also called mBLyS; mouse BAFF (BLyS)
Experimental: (§1) A Series S CM5 Chip (GE Healthcare) was amine coupled with an anti-human Fc capturing antibody (GE Healthcare Human Fc Kit) to >10,000 RUs. Sample antibodies were diluted in 1×HBS-EP+ running buffer to 0.15 ug/mL and injected for 45 seconds at 10 uL/min. […] Biacore Evaluation software was used to fit the data to a 1:1 Binding Model.

[2] = target: T2, soluble human BLyS (human, UniProt Q9Y275 134-285); assay: as above
T2 construct: also called hBLyS; human BAFF (BLyS)
Experimental: as §1

[3] = target: T2, soluble human BLyS; assay: blocking of biotinylated soluble hBLyS binding to immobilized mBR3
[4] = target: T1, soluble mouse BLyS; assay: DELFIA competition, Eu-mBLyS binding to coated TACI
Experimental: (§2) After 5× washing with 200 ul/well of DELFIA 1× wash solution (PE, Cat #4010-0010), plates were blocked with 3% BSA purified from trace heavy metal amounts (PE, Cat #CR84-100) for 3 hours with shaking at room temperature. Plates were washed again five times at 200 μl/well with DELFIA wash solution.
(§3) The final 3 wells across the plate served as controls (2 wells contained 2,000 pM mAbs for negative and background controls while the third contained no mAbs for positive control). […] After 18-24 hrs at 4° C., plates were read on PE EnVision plate reader with laser excitation, LANCE/DELFIA top mirror, and emission filter Eu-615 with a delay of 400 μs. Data were fit to four parameter (variable slope) inhibition dose response curve using GraphPad PRISM 5.0 software.

[5] = target: T2, soluble human BLyS; assay: DELFIA competition, Eu-hBLyS binding to coated BR3
Experimental: as §2, §3

[6] = target: T1, soluble mouse BLyS; assay: DELFIA competition, Eu-mBLyS binding to coated BR3
Experimental: as §2, §3

[7] = target: T1, soluble mouse BLyS; assay: Biacore, antibody captured on chip, BLyS injected, 1:1 model, 25 C
Experimental: (§4) Recombinant protein NG (Thermo Scientific, Cat #21186) was diluted to 100 μg/ml in 10 mM sodium acetate pH 4.0 and then immobilized on the surface of a pre-activated Series S CM5 Biacore chip (GE, Cat #BR-1005-34) using amine coupling. […] After the dissociation period, the chip was regenerated back to baseline by injecting 10 mM glycine pH 1.5 for 120 seconds over the four flow cells. […] The entire data set was fit to a 1:1 interaction model to give kₒₙ, koff, and Kd values. The assay was run at 25° C. in 1× biacore running buffer HBS-EP+ (GE, Cat #BR-1006-69).

[8] = target: T2, soluble human BLyS; assay: as above
Experimental: as §4

[9] = target: T2, soluble human BLyS; assay: DELFIA competition, Eu-hBLyS binding to coated TACI
Experimental: as §2, §3

[10] = target: T3, human APRIL (human, UniProt O75888 105-250, limits assumed); assay: Biacore, antibody captured, APRIL injected
T3 construct: Bought recombinant protein; also called hAPRIL
T3 sequence (looked up): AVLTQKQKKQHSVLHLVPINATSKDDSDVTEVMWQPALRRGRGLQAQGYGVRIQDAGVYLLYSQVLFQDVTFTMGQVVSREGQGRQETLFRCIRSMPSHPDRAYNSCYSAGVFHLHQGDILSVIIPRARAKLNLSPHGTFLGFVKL
Experimental: (§5) Recombinant protein NG (Thermo Scientific, Cat #21186) was diluted to 100 μg/ml in 10 mM Sodium Acetate pH 4.0 and then immobilized on the surface of a pre-activated Series S CM4 Biacore chip (GE, Cat #BR-1005-34) using amine coupling. […] Binding response was measured as the difference in total RU increase during 300 second APRIL injection of each individual flow cell and the reference flow cell (e.g., Flow cell 2-1).

[11] = target: T4, mouse APRIL (mouse, UniProt Q9D777 96-241, limits assumed); assay: Biacore, antibody captured, APRIL injected
T4 construct: Bought recombinant protein; also called mAPRIL
T4 sequence (looked up): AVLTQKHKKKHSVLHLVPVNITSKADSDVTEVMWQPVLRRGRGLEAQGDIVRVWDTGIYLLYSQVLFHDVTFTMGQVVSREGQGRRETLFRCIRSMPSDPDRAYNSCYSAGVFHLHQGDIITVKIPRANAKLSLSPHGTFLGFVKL
Experimental: as §5

[12] = target: T1, soluble mouse BLyS; assay: DELFIA competition, Eu-mBLyS binding to coated BCMA
Experimental: as §2, §3

[13] = target: T2, soluble human BLyS; assay: DELFIA competition, Eu-hBLyS binding to coated BCMA
Experimental: as §2, §3

[14] = target: T1, soluble mouse BLyS; assay: ELISA, soluble mBLyS

B1: 6A11 IgG1 F243A/V264A double mutein expressed in Pichia pastoris (antibody, V domains shown)
VH: QIQLVQSGTEVKKPGASVKVSCKASGYTFTDYYMHWVRQAPGQGLEWMGRINPNSGGTNYAQKFQGRVTMTRDTSISTAYMELSRLRSDDTFVYYCAREGYDFLTGYTLGGMDVWGQGTTVTVSS
VL: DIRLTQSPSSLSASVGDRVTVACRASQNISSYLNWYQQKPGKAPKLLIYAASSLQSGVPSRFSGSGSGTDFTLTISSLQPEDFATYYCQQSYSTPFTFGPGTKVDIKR
notes: IgG1 F243A/V264A (EU) double mutein, alpha-2,6-sialylated, from glycoengineered Pichia pastoris; also called 6A11 (D132943)
Binder B1 has a Kd [1] of 0.121 nM, a koff [1] of 0.000177 s⁻¹ and a kon [1] of 1.47e+06 M⁻¹ s⁻¹. The Kd [2] was 0.905 nM, the koff [2] was 0.000174 s⁻¹ and the kon [2] was 192000 M⁻¹ s⁻¹.

B2: 6F5 IgG expressed in HEK293 cells (antibody, V domains shown)
VH: EVQLVQSGAEVKKPGSSVKVSCKASGGTFSSYAISWVRQAPGQGLEWMGGISAYKGNTNYAQKLQGRVTMTTDTSTSTAYMELRSLRSEDTAVYYCARGRLAEYDILTGYYFNTWAFDIWGQGTMVTVSS
VL: QSALTQPASVSGSPGQSITISCTGTSSDVGGYNYVSWYQQHPGKAPKLMIYDVSKRPSGVSNRFSGSKSGNTASLTISGLQAEDEADYYCSSYTSSSTPVLFGGGTKLTVLG
notes: IgG from HEK293-FreeStyle cells
Binder B2 has an IC50 [3] of over 100 nM.

B3: 6C10 IgG1 F243A/V264A double mutein expressed in Pichia pastoris (antibody, V domains shown)
VH: EVQLVQSGAEVKKPGASVKVSCKASGYTFTSYGISWVRQAPGQGLEWMGWISAYNGNTNYAQKLQGRVTMTTDTSTSTAYMELRSLRSDDTAVYYCARTYYDILTGYYYYYGMDVWGQGTTVTVSS
VL: EIVLTQSPGTLSLSPGERAMLSCRASQSVGNYLAWYQQKPGQAPRLLIYDASNRATGIPARFSGSGSGTDFTLTINSLEPEDFAVYYCQQRSNWPLTFGGGTKVEIKR
notes: IgG1 F243A/V264A (EU) double mutein, alpha-2,6-sialylated, from glycoengineered Pichia pastoris; also called 6C10-DM; 6C10-DM (Pichia)
Binder B3 has an IC50 [4] of 0.445 nM, an IC50 [5] of 0.0873 nM and an IC50 [6] of over 2 nM. The Kd [7] was 0.234 nM, the koff [7] was 7.9e-05 s⁻¹ and the kon [7] was 330000 M⁻¹ s⁻¹. For the same binder, the Kd [8] was 0.421 nM, the koff [8] was 5.5e-05 s⁻¹ and the kon [8] was 130000 M⁻¹ s⁻¹. For the same binder, the IC50 [9] was 0.00074 nM, the binding result [10] was “no binding (tested: 50 nM)” and the binding result [11] was “no binding (tested: 50 nM)”. The Kd [1] was 0.232 nM, the koff [1] was 0.000224 s⁻¹ and the kon [1] was 967000 M⁻¹ s⁻¹. For the same binder, the Kd [2] was 0.068 nM, the koff [2] was 2.5e-05 s⁻¹ and the kon [2] was 368000 M⁻¹ s⁻¹. It also gave an IC50 [12] of over 2 nM and an IC50 [13] of 0.017 nM.

B4: 2C5 IgG expressed in HEK293 cells (antibody, V domains shown)
VH: QVQLVQSGAEVKKPGASVKVSCKASGYTFTGYYIHWVRQAPGQGLEWMGWINPSSGGTNYAQKFQGRVTMTRDTSASTAFMSLSSLRSEDTAVYYCARSYYDILTGYSRNPFDNWGQGTPVTVSS
VL: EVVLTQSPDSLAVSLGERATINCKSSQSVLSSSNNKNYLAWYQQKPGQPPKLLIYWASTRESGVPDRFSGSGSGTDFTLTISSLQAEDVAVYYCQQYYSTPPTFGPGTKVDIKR
notes: as for B2
For B4, the binding result [14] was “no binding” and the IC50 [3] was over 100 nM.

B5: 10B1 IgG expressed in HEK293 cells (antibody, V domains shown)
VH: EVQLVESGAEVKKPGASVKVSCKASGYTFTSYGISWVRQAPGQGLEWMGWISAYNGNTNYAQKLQGRVTMTTDTSTSTAYMELRSLRSDDTAVYYCARADYDILTGYPRGPVDYWGQGTLVTVSS
VL: QSALTQPPSASGSPGQSVTISCTGTSSDVGHYNYVSWYQQHPGKAPKLIIFDVSDRPSGVSNRFSGSKSGNTASLTISGLQAEDEANYYCSSYTSRNTLIFGGGTKLTVLG
notes: as for B2
B5: no binding [14].
